Measured values from IntAct's records for PubMed 19762560.

B1: Synphilin-1 (Homo sapiens), Q9Y6H5 (parent)
chain: MEAPEYLDLDEIDFSDDISYSVTSLKTIPELCRRCDTQNEDRSVSSSSWNCGISTLITNTQKPTGIADVYSKFRPVKRVSPLKHQPETLENNESDDQKNQKVVEYQKGGESDLGPQPQELGPGDGVGGPPGKSSEPSTSLGELEHYDLDMDEILDVPYIKSSQQLASFTKVTSEKRILGLCTTINGLSGKACSTGSSESSSSNMAPFCVLSPVKSPHLRKASAVIHDQHKLSTEETEISPPLVKCGSAYEPENQSKDFLNKTFSDPHGRKVEKTTPDCQLRAFHLQSSAAESKPEEQVSGLNRTSSQGPEERSEYLKKVKSILNIVKEGQISLLPHLAADNLDKIHDENGNNLLHIAASQGHAECLQHLTSLMGEDCLNERNTEKLTPAGLAIKNGQLECVRWMVSETEAIAELSCSKDFPSLIHYAGCYGQEKILLWLLQFMQEQGISLDEVDQDGNSAVHVASQHGYLGCIQTLVEYGANVTMQNHAGEKPSQSAERQGHTLCSRYLVVVETCMSLASQVVKLTKQLKEQTVERVTLQNQLQQFLEAQKSEGKSLPSSPSSPSSPASRKSQWKSPDADDDSVAKSKPGVQEGIQVLGSLSASSRARPKAKDEDSDKILRQLLGKEISENVCTQEKLSLEFQDAQASSRNSKKIPLEKRELKLARLRQLMQRSLSESDTDSNNSEDPKTTPVRKADRPRPQPIVESVESMDSAESLHLMIKKHTLASGGRRFPFSIKASKSLDGHSPSPTSESSEPDLESQYPGSGSIPPNQPSGDPQQPSPDSTAAQKVATSPKSALKSPSSKRRTSQNLKLRVTFEEPVVQMEQPSLELNGEKDKDKGRTLQRTSTSNESGDQLKRPFGAFRSIMETLSGNQNNNNNYQAANQLKTSTLPLTSLGRKTDAKGNPASSASKGKNKAA

Variants of: B1
Conditions: with syua_human SNCA

Variant	effect of a mutation on the interaction
K527A	decreasing interaction
V523N	decreasing interaction

Other lines, results leading:

effect of a mutation on the interaction	Variant
decreasing interaction	K524A
decreasing interaction	A519N
